Assay results from EP4782466A1, “FUSION PROTEIN FOR INACTIVATING CORONAVIRUS AND USE THEREOF” (priority 2023, dated 2025).

Assays:
Test in all cases: cell-based or functional assay
[1] = biological target: S protein of bat-derived SARS-CoV-like coronavirus WIV1 (bat-derived SARS-CoV-like coronavirus WIV1)
[2] = biological target: S protein of bat-derived SARS-CoV-like coronavirus Rs3367 (bat-derived SARS-CoV-like coronavirus Rs3367)
[3] = biological target: S protein of SARS-CoV (SARS-CoV) (UniProt P59594)
[4] = biological target: S protein of SARS-CoV-2 prototype strain (SARS-CoV-2 prototype) (UniProt P0DTC2)
[5] = biological target: S protein of Human Coronavirus NL63 (Human Coronavirus NL63) (UniProt Q6Q1S2)

Row | Substance | EC50, inactivation of pseudovirus (Caco-2, luciferase) [1] | IC50, inhibition of pseudovirus infection (Caco-2, luciferase) [1] | EC50, inactivation of pseudovirus (Caco-2, luciferase) [2] | IC50, inhibition of pseudovirus infection (Caco-2, luciferase) [2] | EC50, inactivation of pseudovirus (Caco-2, luciferase) [3] | IC50, inhibition of pseudovirus infection (Caco-2, luciferase) [3] | IC50, inhibition of pseudovirus infection (Caco-2, luciferase) [4] | IC50, inhibition of pseudovirus infection (Caco-2, luciferase) [5] | also measured
1 | ACE2 protein alone (ACE2 peptidase domain alone) (from UniProt Q9BYF1 18-615) (receptor) | 0.758 µM | 0.239 µM | 0.274 µM | 0.249 µM | 1.24 µM | 0.0095 µM |  |  | 
2 | AL2E protein (ACE2-linker-EK1 fusion protein with (GGGGS)2 linker) (from UniProt Q9BYF1 18-615) |  |  |  |  |  |  | 0.0006 µM |  | 
3 | AL5E protein (ACE2-linker-EK1 fusion protein with (GGGGS)5 linker) | 0.00354 µM | 0.00336 µM | 0.0107 µM | 0.0059 µM | 0.0181 µM | 0.00069 µM | 0.00026 µM | 0.00083 µM | EC50, inactivation of pseudovirus (Caco-2, luciferase) [5]: 0.00108 µM; Fold enhancement in activity of AL5E over ACE2 (EC50, pseudovirus inactivation) [5]: 540 fold; Fold enhancement in activity of AL5E over ACE2 (IC50, pseudovirus inhibition) [5]: 34.4 fold; EC50, inactivation of pseudovirus (Caco-2, luciferase) [4]: 0.0051 µM; Fold enhancement of AL5E over ACE2 (EC50, pseudovirus inactivation) [4]: 22.2 fold; Fold enhancement of AL5E over ACE2 (IC50, pseudovirus inhibition) [4]: 26.9 fold; Fold enhancement in activity of AL5E over ACE2 (EC50, pseudovirus inactivation) [1]: 214 fold; Fold enhancement in activity of AL5E over ACE2 (IC50, pseudovirus inhibition) [1]: 71.2 fold; Fold enhancement in activity of AL5E over ACE2 (EC50, pseudovirus inactivation) [2]: 25.6 fold; Fold enhancement in activity of AL5E over ACE2 (IC50, pseudovirus inhibition) [2]: 42.2 fold; Fold enhancement in activity of AL5E over ACE2 (EC50, pseudovirus inactivation) [3]: 68.1 fold; Fold enhancement in activity of AL5E over ACE2 (IC50, pseudovirus inhibition) [3]: 13.8 fold
4 | AL6E protein (ACE2-linker-EK1 fusion protein with (GGGGS)6 linker) |  |  |  |  |  |  | 0.00023 µM |  | 
5 | AL7E protein (ACE2-linker-EK1 fusion protein with (GGGGS)7 linker) |  |  |  |  |  |  | 0.00037 µM |  | 
6 | EK1 polypeptide |  | 2.45 µM |  | 1.34 µM |  | 0.841 µM | 0.186 µM | 1.07 µM | 
